Data on one molecule can be found in patent US20100210517A1 (RAPTOR PHARMACEUTICAL, published 2010).

Changes are numbered by the printed parent chain.

For experiment [1], the target named is T1, LRP2 CR89 Y1042W V1047D R1088D (human, UniProt P98164 1022-1105).
T1 construct: also called WDWD
T1 chain: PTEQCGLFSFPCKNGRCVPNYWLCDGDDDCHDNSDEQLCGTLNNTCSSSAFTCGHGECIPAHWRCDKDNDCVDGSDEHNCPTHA
The experiment can be described thus: solid-phase assay on coated CR protein, anti-RAP detection, A450. On the procedure:
(§1) Solid phase binding assays-Purified, refolded CR protein (1 μg) was bound to Nunc Maxisorp™ 96-well plates in TBS pH 8 supplemented with 5 mM CaCl₂ (TBSC) overnight at 4° C. Wells were washed with TBSC and then blocked with TBSC containing 2% bovine serum albumin (BSA). […] Control wells contained no added ligand. As an additional control, to determine whether the absence of calcium affected binding, 10 mM EGTA was included in the incubation medium for some samples. […] Excess primary antibody was removed and wells washed before incubation with the secondary antibody, HRP-conjugated goat anti rabbit IgG (Bio-Rad). After washing, TMB substrate solutions (Bio-Rad) were added to detect HRP. Color development was stopped with 1N HCl. Absorption at 450 nm was measured with a microplate spectrophotometer (Molecular Devices). Data were plotted and Kd values derived by non-linear regression with the assumption of single-site binding (GraphPad Prism).
(§2) To test this idea, mutant LRP2 CR89 were prepared in which the native, non-canonical residues at these positions were sequentially substituted with the non-native, canonical residues. As defined above, the A, C, A′, C′ string for LRP2 CR89 is YVWR. Mutants included LRP2 CR89 Y1042W (WVWR), LRP2 CR89 V1047D (YDWR), LRP2 CR89 R1088D (YVWD), LRP2 CR89 V1047D R1088D (YDWD), LRP2 CR89 Y1042W V1047D R1088D (WDWD), LRP2 CR89 Y1042W V1047D (WDWR), LRP2 CR89 Y1042W R1088D (WVWD).

In another experiment the target is T2, LRP2 CR89 V1047D R1088D (human, UniProt P98164 1022-1105).
T2 construct: also called YDWD
T2 sequence: T1 chain with W22Y
Described as above. On the procedure:
as §1, §2

In the next experiment the target is T3, LRP2 CR89 V1047D (human, UniProt P98164 1022-1105).
T3 construct: also called YDWR
T3 sequence: T1 chain with W22Y, D68R
The experiment is described as above. The procedure:
as §1, §2

The next experiment deals with T4, LRP2 CR89 Y1042W R1088D (human, UniProt P98164 1022-1105).
T4 construct: also called WVWD
T4 chain: T1 chain with D27V
The description is as above. The procedure:
as §1, §2

Another experiment addresses T5, LRP2 CR89 Y1042W V1047D (human, UniProt P98164 1022-1105).
T5 construct: also called WDWR
T5 chain: T1 chain with D68R
The description is as above. On the procedure:
as §1, §2

The target of experiment [2] is T6, LRP2 CR89 (human, UniProt P98164 1025-1102).
T6 construct: domain: CR89; also called YVWR; L2 CR89; not shown: N-terminal hexahistidine and S-peptide tags of pET30(+)a
T6 sequence (P98164 1025-1102): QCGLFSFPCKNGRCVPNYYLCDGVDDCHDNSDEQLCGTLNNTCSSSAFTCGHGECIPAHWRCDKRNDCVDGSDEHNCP
Kind of experiment: solid-phase assay on coated CR protein, single-site non-linear fit. On the procedure: Data were plotted and fitted by non-linear regression with the assumption of a single binding site (GraphPad Prism). Kd values with standard deviations were derived from the regression analysis.
as §1

For a further experiment, the target named is T7, LRP2 CR89 R1088D (human, UniProt P98164 1022-1105).
T7 construct: also called YVWD
Described as above. On the procedure: as §1

Experiment [3] concerns the target T6, LRP2 CR89. The experiment is described as above. On the procedure: as §1
The source holds these as a separate data set.

For a further experiment, the target named is T8, MAT CR12 (human, UniProt Q9Y5Y6 452-524).
T8 construct: also called ST14 CR12; matriptase CR12
T8 sequence: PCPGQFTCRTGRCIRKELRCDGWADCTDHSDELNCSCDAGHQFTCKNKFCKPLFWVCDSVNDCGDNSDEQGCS
The experiment can be described thus: solid-phase assay on coated CR protein, each ligand at 80 nM, blank-corrected absorbance.

The target in experiment [4] is T6, LRP2 CR89. Kind of experiment: apparent Kd of the variant for the CR pair used in selection; no unit printed in Table 4, nM per Table 2 and paragraph 292.

B1: MegaRAP1 d3 (ligand)
chain: LDRLRRVSHQGYTTEAKFEEPRVIDLWDLAQSANLTDKELEAFREELKYFKAKIEAHNHYQKQLEIAHEELRHAESVGDGERVSRSREKHALLEGRTKELGYTVKKHLQDLSGRISRAR
notes: V175L lies outside the d3 construct; also called RAPv2A d3; RAP v2 d3; not shown: N-terminal hexahistidine and S-peptide tags of pET30(+)a
Regarding B1, the binding result is recorded as “no binding (tested: 100 nM)” in [1]; “no binding (tested: 100 nM)” with LRP2 CR89 V1047D R1088D; “no binding (tested: 100 nM)” with LRP2 CR89 V1047D; “no binding (tested: 100 nM)” with LRP2 CR89 Y1042W R1088D; “no binding (tested: 100 nM)” with LRP2 CR89 Y1042W V1047D; “no binding (tested: 80 nM)” with MAT CR12. In addition, the Kd with LRP2 CR89 [2] is 38 nM; in the experiment with LRP2 CR89 R1088D, 78 nM; with LRP2 CR89 [3], 33 nM; with LRP2 CR89 [4] it was 38 nM.
